Reference: US20180057603A1

Target: erbB2 (p185erbB2/HER2/neu) on SK-BR-3 cells (human) (UniProt P04626)
Experiment: cell-based or functional assay

anti-erbB2 mAb 4D5 (antibody)
foci less than 20 pixels in soft agar (SK-BR-3): 72%
